Test [1] concerns the target Kluyveromyces lactis β-galactosidase mutant R116C/T270C (Kluyveromyces lactis) (UniProt P00723). Nature of the test: AUC; sedimentation velocity, 0.1 mg/mL enzyme, 50 mM Tris-HCl, 150 mM NaCl, pH 7.4, 48 k rpm, c(s) distribution (SEDFIT); self-association.
Test [2] shares this target. In words: AUC; sedimentation velocity, 0.2 mg/mL enzyme, 50 mM Tris-HCl, 150 mM NaCl, pH 7.4, 48 k rpm, c(s) distribution (SEDFIT); self-association, shares of monomer, dimer, trimer and tetramer.
Test [3] addresses Kluyveromyces lactis β-galactosidase mutant R116C/T270C/G818C (Kluyveromyces lactis) (UniProt P00723). In words: AUC; sedimentation velocity, 0.1 mg/mL enzyme, 50 mM Tris-HCl, 150 mM NaCl, pH 7.4, 48 k rpm, c(s) distribution (SEDFIT); self-association.
Test [4] has the same target. In words: AUC; sedimentation velocity, 0.2 mg/mL enzyme, 50 mM Tris-HCl, 150 mM NaCl, pH 7.4, 48 k rpm, c(s) distribution (SEDFIT); self-association, shares of monomer, dimer, trimer and tetramer.

The substance “Kluyveromyces lactis β-galactosidase mutant R116C/T270C (from UniProt P00723 2-1025) (enzyme)” registered an increase in monomeric forms at 0.1 mg/mL against 0.2 mg/mL in test [1] of 0.8%. For the same substance, in test [2], the percent of the protein as dimer is 20.9%, the percent of the protein as monomer was found to be 21.9%, the percent of the protein as tetramer was determined as 49.3% and the percent of the protein as trimer was 7.9%.
In the case of “Kluyveromyces lactis β-galactosidase mutant R116C/T270C/G818C (from UniProt P00723 2-1025) (enzyme)”, the increase in monomeric forms at 0.1 mg/mL against 0.2 mg/mL in test [3] is 2.1%. Further, in test [4], the percent of the protein as dimer was determined as 57.2%, the percent of the protein as monomer was 7.3%, the percent of the protein as tetramer is 23% and the percent of the protein as trimer came to 12.6%.

Values taken from publication PMC5374532, “Rational mutagenesis by engineering disulphide bonds improves Kluyveromyces lactis beta-galactosidase for high-temperature industrial applications” (Scientific Reports, 2017).
